From the supplement of paper PMC10065799, “High-throughput profiling of sequence recognition by tyrosine kinases and SH2 domains using bacterial peptide display” (eLife, 2023)

Columns and labels:
FGFR3 = FGFR3 (UniProt P22607); test: phosphorylation enrichment, bacterial display (enrichment ratio); higher = better substrate or ligand; peptides without Tyr show the background
Jak2 = Jak2 (UniProt O60674); test: as above
AncSZ = test: as above
Fes = Fes (UniProt P07332); test: as above
MERTK = MERTK (UniProt Q12866); test: as above
EPHB2 = EPHB2 (UniProt P29323); test: as above
c-Abl (mouse) = test: as above
c-Src = test: as above
EPHB1 = EPHB1 (UniProt P54762); test: as above
FGFR1 = FGFR1 (UniProt P11362); test: as above
Fer (mouse) = test: as above
Hck = Hck (UniProt P08631); test: as above
Fyn = Fyn (UniProt P06241); test: as above
Grb2 SH2 = Grb2 SH2 (UniProt P62993); test: SH2 binding enrichment of the phosphorylated peptide, bacterial display (enrichment ratio); higher = better substrate or ligand; peptides without Tyr show the background
SHP2-C SH2 = test: as above
c-Src SH2 = test: as above
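For SH2 binding enrichment of the phosphorylated peptide, bacterial display in this document: peptide library displayed on the E. coli surface as eCPX fusions, selected cells deep-sequenced, score is each peptide's frequency after selection divided by its frequency in the input.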
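For phosphorylation enrichment, bacterial display in this document: 11-residue human phosphosite peptides and single-mutation variants displayed on the E. coli surface, counted by deep sequencing, each peptide's frequency after selection divided by its frequency in the unselected input library; frequency after pTyr selection over input frequency; kinase dosed for 20-30% of maximal phosphorylation in three min.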

Chain of FGFR1 (P11362 whole entry, looked up): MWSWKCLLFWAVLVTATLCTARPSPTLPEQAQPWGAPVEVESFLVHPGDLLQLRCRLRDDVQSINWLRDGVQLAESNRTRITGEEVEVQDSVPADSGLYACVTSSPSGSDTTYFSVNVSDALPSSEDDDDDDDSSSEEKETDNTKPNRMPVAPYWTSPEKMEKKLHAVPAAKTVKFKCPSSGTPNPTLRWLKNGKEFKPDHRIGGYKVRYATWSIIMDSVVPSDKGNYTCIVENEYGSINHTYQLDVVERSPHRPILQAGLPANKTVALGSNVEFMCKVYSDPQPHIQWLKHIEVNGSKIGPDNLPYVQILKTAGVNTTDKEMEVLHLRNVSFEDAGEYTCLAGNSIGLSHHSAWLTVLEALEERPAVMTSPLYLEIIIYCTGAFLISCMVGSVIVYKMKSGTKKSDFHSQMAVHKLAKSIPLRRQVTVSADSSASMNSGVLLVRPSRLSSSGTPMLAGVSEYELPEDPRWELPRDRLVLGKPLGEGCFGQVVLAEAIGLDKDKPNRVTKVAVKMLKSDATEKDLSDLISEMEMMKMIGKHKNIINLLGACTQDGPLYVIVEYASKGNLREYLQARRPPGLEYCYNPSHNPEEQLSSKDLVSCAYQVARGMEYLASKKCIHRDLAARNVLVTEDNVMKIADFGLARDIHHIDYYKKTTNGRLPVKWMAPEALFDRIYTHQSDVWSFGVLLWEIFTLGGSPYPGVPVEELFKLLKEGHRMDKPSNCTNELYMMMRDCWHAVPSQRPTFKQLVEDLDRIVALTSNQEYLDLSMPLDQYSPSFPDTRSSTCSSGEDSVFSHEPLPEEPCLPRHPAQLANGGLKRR
Chain of Hck (P08631 whole entry, looked up): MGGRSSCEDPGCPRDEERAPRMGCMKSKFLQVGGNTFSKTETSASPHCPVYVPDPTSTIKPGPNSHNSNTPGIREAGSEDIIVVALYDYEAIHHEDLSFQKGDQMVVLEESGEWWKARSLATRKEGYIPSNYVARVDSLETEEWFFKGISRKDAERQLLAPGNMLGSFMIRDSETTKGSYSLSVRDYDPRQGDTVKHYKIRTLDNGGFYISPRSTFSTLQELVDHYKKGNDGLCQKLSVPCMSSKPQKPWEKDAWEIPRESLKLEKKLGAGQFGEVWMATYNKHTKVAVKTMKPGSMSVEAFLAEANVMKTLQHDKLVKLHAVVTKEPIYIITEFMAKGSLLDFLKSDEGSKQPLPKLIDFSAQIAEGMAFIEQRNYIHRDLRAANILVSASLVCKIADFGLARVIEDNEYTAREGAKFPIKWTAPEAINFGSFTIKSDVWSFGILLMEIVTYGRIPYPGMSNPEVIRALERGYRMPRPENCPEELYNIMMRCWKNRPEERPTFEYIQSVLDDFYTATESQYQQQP
Chain of EPHB2 (P29323 whole entry, looked up): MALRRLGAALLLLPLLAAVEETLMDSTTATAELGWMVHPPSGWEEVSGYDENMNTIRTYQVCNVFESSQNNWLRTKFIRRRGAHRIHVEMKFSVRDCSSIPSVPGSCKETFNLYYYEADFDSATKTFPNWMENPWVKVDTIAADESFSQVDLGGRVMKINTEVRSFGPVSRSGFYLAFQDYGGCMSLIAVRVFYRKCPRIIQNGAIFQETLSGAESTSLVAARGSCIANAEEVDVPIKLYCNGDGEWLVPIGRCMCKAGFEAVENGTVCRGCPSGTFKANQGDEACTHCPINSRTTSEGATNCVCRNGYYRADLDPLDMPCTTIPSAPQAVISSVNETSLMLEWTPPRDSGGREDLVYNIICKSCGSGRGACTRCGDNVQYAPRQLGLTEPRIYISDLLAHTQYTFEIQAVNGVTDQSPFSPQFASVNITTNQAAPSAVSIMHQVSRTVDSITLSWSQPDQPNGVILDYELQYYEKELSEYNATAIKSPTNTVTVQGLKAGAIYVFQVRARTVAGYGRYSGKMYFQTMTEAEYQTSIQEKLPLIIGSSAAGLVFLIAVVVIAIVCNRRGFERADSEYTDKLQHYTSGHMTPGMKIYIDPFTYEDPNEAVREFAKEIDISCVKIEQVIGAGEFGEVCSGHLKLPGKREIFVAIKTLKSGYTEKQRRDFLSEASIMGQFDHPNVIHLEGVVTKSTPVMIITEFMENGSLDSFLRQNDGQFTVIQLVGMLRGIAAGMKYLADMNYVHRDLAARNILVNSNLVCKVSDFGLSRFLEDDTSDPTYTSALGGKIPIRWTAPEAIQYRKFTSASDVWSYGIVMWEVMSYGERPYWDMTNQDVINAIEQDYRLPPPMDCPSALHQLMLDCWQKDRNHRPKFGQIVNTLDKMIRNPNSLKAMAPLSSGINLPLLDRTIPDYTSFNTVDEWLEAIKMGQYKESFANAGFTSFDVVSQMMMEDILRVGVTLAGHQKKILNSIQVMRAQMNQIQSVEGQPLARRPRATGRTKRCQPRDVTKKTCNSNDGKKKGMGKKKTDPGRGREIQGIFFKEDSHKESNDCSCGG
Chain of Fyn (P06241 whole entry, looked up): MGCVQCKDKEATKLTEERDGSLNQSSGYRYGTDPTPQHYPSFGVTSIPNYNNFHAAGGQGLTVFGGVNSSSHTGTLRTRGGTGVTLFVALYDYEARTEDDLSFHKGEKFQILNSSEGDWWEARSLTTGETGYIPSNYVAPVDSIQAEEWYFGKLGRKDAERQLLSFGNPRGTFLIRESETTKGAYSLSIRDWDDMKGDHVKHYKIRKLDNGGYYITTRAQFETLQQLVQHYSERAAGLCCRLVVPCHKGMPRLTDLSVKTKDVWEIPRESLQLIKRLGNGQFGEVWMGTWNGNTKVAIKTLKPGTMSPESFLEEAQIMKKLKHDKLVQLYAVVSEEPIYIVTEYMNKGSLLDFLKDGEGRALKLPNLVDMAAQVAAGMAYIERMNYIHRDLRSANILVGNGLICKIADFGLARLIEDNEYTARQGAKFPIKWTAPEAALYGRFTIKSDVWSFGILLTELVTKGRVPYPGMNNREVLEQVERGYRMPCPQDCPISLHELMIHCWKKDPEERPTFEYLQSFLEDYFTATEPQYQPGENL
Chain of Fes (P07332 whole entry, looked up): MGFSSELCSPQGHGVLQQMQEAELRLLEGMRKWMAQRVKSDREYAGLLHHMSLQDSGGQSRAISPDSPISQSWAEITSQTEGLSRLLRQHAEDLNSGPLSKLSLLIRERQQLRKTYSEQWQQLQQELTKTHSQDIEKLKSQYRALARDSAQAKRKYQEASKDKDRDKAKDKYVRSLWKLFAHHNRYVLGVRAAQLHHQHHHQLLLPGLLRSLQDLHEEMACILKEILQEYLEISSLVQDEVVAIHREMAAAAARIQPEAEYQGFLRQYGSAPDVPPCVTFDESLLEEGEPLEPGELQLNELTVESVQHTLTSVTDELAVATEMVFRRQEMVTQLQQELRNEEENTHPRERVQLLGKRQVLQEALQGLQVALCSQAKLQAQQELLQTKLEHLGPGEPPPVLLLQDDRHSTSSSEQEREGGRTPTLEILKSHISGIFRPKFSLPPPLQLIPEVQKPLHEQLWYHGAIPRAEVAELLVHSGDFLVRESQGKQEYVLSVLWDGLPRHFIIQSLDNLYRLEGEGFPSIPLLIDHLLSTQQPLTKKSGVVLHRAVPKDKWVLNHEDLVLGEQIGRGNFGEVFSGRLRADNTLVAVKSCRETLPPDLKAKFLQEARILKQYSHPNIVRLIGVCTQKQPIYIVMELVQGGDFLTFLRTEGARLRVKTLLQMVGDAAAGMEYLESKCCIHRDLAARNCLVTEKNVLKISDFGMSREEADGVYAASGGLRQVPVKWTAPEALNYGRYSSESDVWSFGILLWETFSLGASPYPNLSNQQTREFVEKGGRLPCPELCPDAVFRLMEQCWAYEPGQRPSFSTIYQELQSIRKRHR
Chain of Grb2 SH2 (P62993 whole entry, looked up): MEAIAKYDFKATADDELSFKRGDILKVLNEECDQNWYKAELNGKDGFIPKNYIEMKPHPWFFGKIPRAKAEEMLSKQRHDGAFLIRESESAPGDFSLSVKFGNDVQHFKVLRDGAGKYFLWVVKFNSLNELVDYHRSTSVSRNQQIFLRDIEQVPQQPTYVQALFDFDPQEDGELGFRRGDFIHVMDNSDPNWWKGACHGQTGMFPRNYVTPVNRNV
Chain of MERTK (Q12866 whole entry, looked up): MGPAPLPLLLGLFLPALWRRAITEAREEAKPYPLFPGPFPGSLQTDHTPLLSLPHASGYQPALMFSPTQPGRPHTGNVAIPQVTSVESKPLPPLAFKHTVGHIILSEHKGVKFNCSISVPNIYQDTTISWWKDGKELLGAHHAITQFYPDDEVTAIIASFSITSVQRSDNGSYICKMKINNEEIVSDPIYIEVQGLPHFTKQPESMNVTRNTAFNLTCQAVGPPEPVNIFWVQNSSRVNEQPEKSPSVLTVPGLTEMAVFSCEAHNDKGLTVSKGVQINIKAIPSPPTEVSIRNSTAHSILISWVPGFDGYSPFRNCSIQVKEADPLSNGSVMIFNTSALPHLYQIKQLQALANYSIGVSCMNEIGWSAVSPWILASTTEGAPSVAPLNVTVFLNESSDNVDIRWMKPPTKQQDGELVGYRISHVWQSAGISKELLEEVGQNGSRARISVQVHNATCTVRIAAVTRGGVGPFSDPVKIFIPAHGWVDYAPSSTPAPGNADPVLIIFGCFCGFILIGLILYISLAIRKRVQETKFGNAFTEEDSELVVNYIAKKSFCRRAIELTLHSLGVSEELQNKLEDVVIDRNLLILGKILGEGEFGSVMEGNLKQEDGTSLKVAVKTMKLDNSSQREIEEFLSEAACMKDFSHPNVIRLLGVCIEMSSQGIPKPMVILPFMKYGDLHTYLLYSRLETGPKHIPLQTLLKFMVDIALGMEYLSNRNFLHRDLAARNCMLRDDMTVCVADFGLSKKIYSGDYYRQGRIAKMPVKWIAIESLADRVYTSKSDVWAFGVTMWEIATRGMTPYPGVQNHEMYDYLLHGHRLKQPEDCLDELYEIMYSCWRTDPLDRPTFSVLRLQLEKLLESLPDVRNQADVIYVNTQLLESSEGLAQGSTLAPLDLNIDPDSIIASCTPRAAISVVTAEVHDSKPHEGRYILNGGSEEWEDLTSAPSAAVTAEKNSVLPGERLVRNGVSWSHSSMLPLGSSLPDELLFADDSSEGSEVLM

Sequence | phosphorylation enrichment (FGFR3) | phosphorylation enrichment (Jak2) | phosphorylation enrichment (AncSZ) | phosphorylation enrichment (Fes) | phosphorylation enrichment (MERTK) | phosphorylation enrichment (EPHB2) | phosphorylation enrichment (c-Abl (mouse)) | phosphorylation enrichment (c-Src) | phosphorylation enrichment (EPHB1) | phosphorylation enrichment (FGFR1) | phosphorylation enrichment (Fer (mouse)) | phosphorylation enrichment (Hck) | phosphorylation enrichment (Fyn) | SH2 binding enrichment (Grb2 SH2) | SH2 binding enrichment (SHP2-C SH2) | SH2 binding enrichment (c-Src SH2)
GYAGKYIAMVM [CYP19A1_Y441_C437Y] | 0.584 | 0.644 | 0.752 | 0.904 | 0.479 | 0.483 | 0.862 | 0.381 | 0.525 | 0.521 | 0.545 | 0.526 | 0.489 | 0.883 | 0.563 | 0.732
YSMGCYEISLG [HMGCL_Y198] | 0.817 | 1.38 | 2.12 | 1.47 | 2.66 | 1.18 | 1.08 | 2.35 | 1.56 | 0.69 | 2.77 | 1.22 | 2.15 | 0.551 | 0.658 | 0.582
HSVVQYVGGVM [FGGY_Y136_L134V] | 0.629 | 0.726 | 0.989 | 0.911 | 0.603 | 0.572 | 0.61 | 0.491 | 0.517 | 0.447 | 0.643 | 0.609 | 0.465 | 0.885 | 2.89 | 0.465
RSFSPCDFQPC [TNS1_Y796_Y796C_YF] | 0.822 | 0.705 | 0.83 | 0.972 | 0.643 | 0.991 | 0.427 | 0.583 | 0.54 | 0.672 | 0.584 | 0.786 | 0.783 | 0.945 | 0.602 | 0.693
GFKVRYATWSI [FGFR1_Y210_YF] | 0.795 | 0.997 | 1.11 | 1.22 | 0.499 | 0.534 | 0.711 | 0.392 | 0.714 | 0.463 | 0.512 | 0.512 | 0.494 | 1.64 | 1.63 | 1.16
KNITEYCRHLI [RECQL_Y492_D495H] | 0.533 | 0.88 | 0.726 | 0.855 | 0.43 | 0.436 | 0.654 | 0.477 | 0.51 | 0.526 | 0.533 | 0.455 | 0.433 | 0.812 | 0.773 | 0.612
KIVYVYVKKRS [DNAI2_Y7_E2K] | 0.654 | 1.17 | 1.13 | 1.17 | 0.507 | 0.538 | 0.758 | 0.433 | 0.577 | 0.531 | 0.514 | 0.587 | 0.515 | 0.745 | 0.848 | 0.537
FLRTGYSVPFG [TGM1_Y370_YF] | 0.632 | 0.929 | 0.875 | 0.955 | 0.561 | 0.515 | 0.945 | 0.53 | 0.523 | 0.504 | 0.466 | 0.461 | 0.729 | 0.885 | 1.62 | 5.53
LRVGFYESDVM [A2M_Y708] | 2.89 | 2.04 | 2.97 | 3.12 | 2.61 | 0.934 | 1.9 | 1.33 | 1.86 | 1.39 | 1.62 | 0.996 | 1.28 | 0.934 | 1.02 | 4.14
AQINLYQDVML [ZNF806_Y33] | 1.29 | 1.01 | 1.25 | 2.83 | 2.17 | 8.39 | 0.928 | 1.05 | 15 | 1.14 | 15.4 | 2.05 | 1.15 | 0.886 | 0.68 | 0.685
RYVTRYIYNRE [HLA-DQB1_Y62] | 0.793 | 1.26 | 1.23 | 1.18 | 0.773 | 0.783 | 0.832 | 1.09 | 0.74 | 0.681 | 0.527 | 0.739 | 0.701 | 0.72 | 0.432 | 0.367
CRAVKYLQMVD [AVPR2_Y117_G122D] | 0.585 | 0.675 | 0.71 | 0.922 | 0.354 | 0.456 | 0.535 | 0.318 | 0.508 | 0.427 | 0.419 | 0.456 | 0.503 | 0.798 | 0.755 | 0.532
LTDTVYSSSSA [OR4C12_Y71_I67T] | 0.586 | 1.09 | 1.12 | 1.15 | 0.58 | 0.374 | 0.911 | 2.33 | 0.323 | 0.694 | 1.69 | 1.93 | 2.53 | 1.07 | 0.899 | 0.349
IRSGIYYKPES [L2HGDH_Y102_H98R] | 0.735 | 1.26 | 0.899 | 0.687 | 9.7 | 0.753 | 8.79 | 1.51 | 0.982 | 0.745 | 0.465 | 2.6 | 1.97 | 0.712 | 0.419 | 0.697
FGLDRYQCDCT [PTGS1_Y54] | 0.861 | 0.874 | 1.1 | 1.23 | 0.454 | 0.613 | 0.796 | 0.422 | 0.625 | 0.587 | 0.492 | 0.499 | 0.524 | 1.01 | 0.849 | 0.942
AALKLYHVSDS [VIL1_Y256] | 0.672 | 0.635 | 0.815 | 0.766 | 0.847 | 0.558 | 0.537 | 0.417 | 0.493 | 0.511 | 0.427 | 0.623 | 0.561 | 0.613 | 1.18 | 0.434
AEPDIYQEKLS [USP54_Y1233] | 0.623 | 1.01 | 0.994 | 1.08 | 0.405 | 0.508 | 0.692 | 0.568 | 0.531 | 0.457 | 0.485 | 0.702 | 0.58 | 1.19 | 0.785 | 0.674

Sequence | phosphorylation enrichment (FGFR3) | phosphorylation enrichment (Jak2) | phosphorylation enrichment (AncSZ) | phosphorylation enrichment (Fes) | phosphorylation enrichment (MERTK) | phosphorylation enrichment (EPHB2) | phosphorylation enrichment (c-Abl (mouse)) | phosphorylation enrichment (c-Src) | phosphorylation enrichment (EPHB1) | phosphorylation enrichment (FGFR1) | phosphorylation enrichment (Fer (mouse)) | phosphorylation enrichment (Hck) | phosphorylation enrichment (Fyn) | SH2 binding enrichment (Grb2 SH2) | SH2 binding enrichment (SHP2-C SH2) | SH2 binding enrichment (c-Src SH2)
YPKARYRWLVL [APTX_Y214_H215R] | 0.492 | 0.6 | 0.786 | 0.787 | 0.478 | 0.553 | 0.499 | 0.399 | 0.434 | 0.611 | 0.456 | 0.422 | 0.464 | 1.08 | 1.02 | 0.933
KPYRVYCDMNT [FGB_Y269] | 0.789 | 1.1 | 1.04 | 1.13 | 0.492 | 0.783 | 0.779 | 0.562 | 1.53 | 0.51 | 0.68 | 0.691 | 0.6 | 1.03 | 0.658 | 1.04
RELGEYALAEY [ALDH1A3_Y492] | 0.714 | 1.81 | 1.44 | 2.76 | 0.55 | 0.785 | 1.67 | 1.14 | 0.858 | 0.694 | 0.74 | 0.765 | 0.614 | 0.707 | 0.691 | 1.18
KNKLNYTLPQD [NRAP_Y523] | 0.451 | 0.567 | 0.584 | 0.523 | 0.347 | 0.436 | 0.468 | 0.35 | 0.409 | 0.419 | 0.39 | 0.406 | 0.372 | 0.944 | 0.834 | 0.648
SLAARYYNWVC [FLT4_Y1230_S1235C] | 3.95 | 1.39 | 1.4 | 1.47 | 3.49 | 0.883 | 0.957 | 0.597 | 0.907 | 4.96 | 0.777 | 0.728 | 0.565 | 6.7 | 1.21 | 1.87
FSGDFYRIQGR [DDR2_Y741_YF] | 0.594 | 0.944 | 0.723 | 0.817 | 0.421 | 0.439 | 0.578 | 0.551 | 0.543 | 0.509 | 0.393 | 0.449 | 0.488 | 0.786 | 0.594 | 0.501
NPQKSYFICLY [WAS_Y83_R86C] | 0.975 | 1.12 | 1.11 | 1.2 | 0.557 | 0.604 | 0.925 | 0.415 | 0.675 | 0.848 | 0.496 | 0.438 | 0.443 | 1.11 | 0.66 | 0.412
KPAFSYTSSST [SIM1_Y356] | 0.475 | 0.528 | 1.01 | 0.635 | 0.417 | 0.533 | 0.606 | 0.484 | 0.467 | 0.415 | 0.447 | 0.446 | 0.578 | 0.944 | 0.715 | 0.503
GHLYAYNWISI [BEST1_Y227_D228N] | 2.83 | 1.33 | 1.71 | 1.49 | 8.13 | 5.2 | 1.21 | 1.32 | 6.38 | 3.67 | 12 | 1.24 | 1.01 | 0.944 | 0.816 | 0.738
GGGGSYNVFGN [HNRNPA1_Y312_D314V] | 0.515 | 0.723 | 0.65 | 0.742 | 0.457 | 0.523 | 0.652 | 0.488 | 0.404 | 0.467 | 0.419 | 0.424 | 0.441 | 0.833 | 0.747 | 0.52
TENAGYYFRVS | 1.14 | 3.16 | 1.44 | 2.21 | 0.714 | 1.02 | 1.04 | 0.421 | 0.491 | 0.82 | 0.677 | 0.728 | 0.407 | 0.878 | 0.897 | 0.547
GSLEDYVRETN [GIMAP6_Y176] | 0.661 | 0.724 | 1 | 0.869 | 0.442 | 0.573 | 0.619 | 0.424 | 0.438 | 0.501 | 0.398 | 0.54 | 0.468 | 0.785 | 0.656 | 0.541
VVSMNYRVGAL [BCHE_Y174] | 0.534 | 0.722 | 0.703 | 0.802 | 0.362 | 0.445 | 0.556 | 0.342 | 0.511 | 0.524 | 0.333 | 0.43 | 0.336 | 0.475 | 0.771 | 0.446
SKLTIYDGRPS [MTM1_Y277_A279G] | 0.508 | 0.589 | 0.713 | 0.674 | 0.463 | 0.499 | 0.508 | 0.612 | 0.367 | 0.456 | 0.409 | 1.44 | 0.539 | 0.94 | 0.638 | 0.439
SSMIDYNLLEK [MYOC_Y479_P481L] | 0.698 | 0.968 | 0.855 | 0.954 | 0.434 | 0.563 | 0.685 | 0.409 | 0.455 | 0.526 | 0.417 | 0.518 | 0.482 | 0.822 | 0.692 | 0.723
YGCGMYSHLQG [LGR4_Y848_D844G] | 0.998 | 0.723 | 1.2 | 1.07 | 5.25 | 1.07 | 1.49 | 2.87 | 1.06 | 1.06 | 1.24 | 4.44 | 1.51 | 0.854 | 0.991 | 1.96
